± gives the standard deviation of the averaged measurements.
Each sequence was assayed on ATP (assay: switch fluorescence ratio, 500 uM ATP over buffer (Cy3 cluster intensity, sum of 5 cycles each) (fold (ratio)); higher = stronger signal-on switching upon ATP binding; sequences stand for … in TCGTCGGCAGCGTCAGATGTGTATAAGAGACAGTTTTTTTTTTTTTTTTTTTTTTTTT…TC). Details: aptamer strand: ATP DNA aptamer (quencher-CACCTGGGGGAGTATTGCGGAGGAAGG + anchor), 100 nM annealed; ATP concentration: 500 uM.
Procedure, shortened: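 Five buffer/ATP imaging cycles were run on Cy3-labelled switching-strand clusters on a modified Illumina MiSeq flow-cell, with NaOH stripping and re-annealing between cycles. In each cycle, clusters annealed to 100 nM quencher-labelled ATP aptamer were imaged in selection buffer, then after 15 min with 500 uM ATP at 22 °C. Per cluster, the fluorescence ratio is summed target-cycle over summed buffer-cycle Cy3 intensity, averaged per switch-domain sequence. Only clusters within 100-1000 RFU were kept.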
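Also: ATP exposure 15 min at 22 °C before imaging.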

| Sequence | switch fluorescence ratio |
| --- | --- |
| GATGGGGCTG | 1.02 ± 0.062 |
| GATGGGGGAT | 1.01 ± 0.028 |
| GATGGGGGGG | 1 ± 0.028 |
| GATGGGTTTT | 0.997 ± 0.062 |
| GATGGTAGTT | 1.012 ± 0.0024 |
| GATGGTCGTT | 1.011 ± 0.0079 |
| GATGGTGGGG | 0.977 ± 0.035 |
| GATGGTGGTT | 1.02 ± 0.044 |
| GATGGTTTCC | 1.02 ± 0.0017 |
| GATGGTTTGT | 0.988 ± 0.039 |
| GATGTAACTT | 1.012 ± 0.0061 |
| GATGTACCCC | 1.114 ± 0.0023 |
| GATGTAGCTT | 1.029 ± 0.0033 |
| GATGTAGTAT | 0.982 ± 0.011 |
| GATGTAGTGG | 1.029 ± 0.0055 |
| GATGTCAGGG | 1.05 ± 0.021 |
| GATGTCATTT | 0.987 ± 0.024 |
| GATGTCCCCA | 0.959 ± 0.013 |
| GATGTCTAGC | 0.9894 ± 0.0065 |
| GATGTGGTAA | 1.01 ± 0.012 |
| GATGTGGTGA | 0.9929 ± 0.0061 |
| GATGTGTTGG | 0.9595 ± 0.0048 |
| GATGTTAAGA | 0.998 ± 0.046 |
| GATGTTAGTA | 0.973 ± 0.018 |
| GATGTTGAAT | 0.998 ± 0.021 |

| Sequence | switch fluorescence ratio |
| --- | --- |
| GATGTTGATG | 0.976 ± 0.014 |
| GATTAAGAGC | 0.999 ± 0.044 |
| GATTACTACC | 1.21 ± 0.04 |
| GATTAGGCGA | 1.023 ± 0.0064 |
| GATTAGTGTG | 0.995 ± 0.05 |
| GATTATAAGA | 0.989 ± 0.033 |
| GATTATAGAT | 1 ± 0.015 |
| GATTATCGTT | 1.03 ± 0.027 |
| GATTATGCGC | 1.03 ± 0.037 |
| GATTATGCTC | 1.01 ± 0.015 |
| GATTATGCTG | 1.17 ± 0.06 |
| GATTATGGCA | 0.9752 ± 0.0066 |
| GATTATTGCT | 0.988 ± 0.037 |
| GATTCAAAGG | 0.9911 ± 0.004 |
| GATTCACTAA | 0.989 ± 0.054 |
| GATTCAGACA | 0.963 ± 0.015 |
| GATTCAGCGC | 0.99 ± 0.03 |
| GATTCCATAT | 1 ± 0.03 |
| GATTCGCGGC | 1.16 ± 0.02 |
| GATTCGCTAA | 1.12 ± 0.13 |
| GATTCTGGTT | 0.94 ± 0.029 |
| GATTCTTGAG | 1.01 ± 0.032 |
| GATTGAAAGA | 0.986 ± 0.026 |
| GATTGAAAGC | 0.962 ± 0.045 |
| GATTGAAGGG | 0.979 ± 0.032 |

| Sequence | switch fluorescence ratio |
| --- | --- |
| GATTGACAGG | 1.04 ± 0.03 |
| GATTGACCAT | 1.041 ± 0.0099 |
| GATTGAGCGT | 0.996 ± 0.017 |
| GATTGATTGC | 1 ± 0.033 |
| GATTGATTGT | 0.9867 ± 0.0061 |
| GATTGCAGAT | 1.02 ± 0.034 |
| GATTGGAAAG | 1.0069 ± 0.00042 |
| GATTGGAGTC | 1.008 ± 0.0045 |
| GATTGGCCCG | 1.11 ± 0.13 |
| GATTGGGGAT | 0.992 ± 0.02 |
| GATTGGGGGA | 0.984 ± 0.036 |
| GATTGGGTCA | 1 ± 0.012 |
| GATTGGGTGG | 1 ± 0.017 |
| GATTGGGTTG | 0.981 ± 0.045 |
| GATTGGTGTT | 0.956 ± 0.025 |
| GATTGTAATC | 0.99 ± 0.0063 |
| GATTGTATGG | 1.02 ± 0.025 |
| GATTGTCCTT | 0.9956 ± 0.0048 |
| GATTGTGGAG | 1.01 ± 0.018 |
| GATTGTTTTT | 0.997 ± 0.044 |
| GATTTAACGA | 0.985 ± 0.014 |
| GATTTAAGAT | 1.01 ± 0.029 |
| GATTTAATGG | 1 ± 0.021 |
| GATTTAATTT | 1.001 ± 0.0063 |
| GATTTACCAG | 1.03 ± 0.027 |

| Sequence | switch fluorescence ratio |
| --- | --- |
| GATTTAGTTA | 1.01 ± 0.027 |
| GATTTATCGC | 1 ± 0.046 |
| GATTTATGAG | 0.9668 ± 0.0067 |
| GATTTATTTT | 0.994 ± 0.017 |
| GATTTCAAAT | 1.02 ± 0.023 |
| GATTTCATTT | 1.01 ± 0.04 |
| GATTTGAAGG | 1.01 ± 0.035 |
| GATTTGACG | 1.04 ± 0.056 |
| GATTTGATGT | 1 ± 0.03 |
| GATTTGATTG | 1.002 ± 0.0033 |
| GATTTGCTAG | 0.997 ± 0.023 |
| GATTTTCACT | 0.9903 ± 0.0092 |
| GATTTTCCTT | 1.01 ± 0.027 |
| GATTTTGAGC | 0.9986 ± 0.0048 |
| GATTTTGCAT | 1 ± 0.028 |
| GATTTTGGCT | 0.9969 ± 0.0019 |
| GATTTTTACT | 1.02 ± 0.024 |
| GATTTTTATA | 0.969 ± 0.028 |
| GATTTTTATG | 0.977 ± 0.011 |
| GATTTTTGAG | 0.99 ± 0.017 |
| GATTTTTGGA | 0.968 ± 0.03 |
| GATTTTTGGG | 1.01 ± 0.047 |
| GATTTTTGTT | 1.01 ± 0.034 |
| GATTTTTTGA | 1.01 ± 0.011 |
| GCAAAAAAAT | 1.04 ± 0.025 |

Reference: the supplement of paper PMC10126150
